The source of these data is patent publication US20070065890.

Data set [1] addresses purified recombinant HA-H1b (expressed in E. coli), P10412.
Data set [2] deals with H1 histones isolated from cells treated with TSA and nicotinamide, P10412.
For data set [3], the target named is histone H1 (purified calf thymus H1).

Chain of purified recombinant HA-H1b (expressed in E. coli), P10412 (P10412 whole entry, looked up): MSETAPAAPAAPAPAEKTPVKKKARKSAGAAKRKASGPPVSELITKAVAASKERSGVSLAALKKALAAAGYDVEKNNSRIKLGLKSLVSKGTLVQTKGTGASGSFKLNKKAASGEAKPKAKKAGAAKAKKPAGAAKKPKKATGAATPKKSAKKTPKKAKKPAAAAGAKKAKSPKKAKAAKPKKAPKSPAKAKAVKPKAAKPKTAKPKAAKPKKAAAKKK
Chain of H1 histones isolated from cells treated with TSA and nicotinamide, P10412 (P10412 whole entry, looked up): as above

B1: recombinant SirT2 (protein)
chain: MAEPDPSHPLETQAGKVQEAQDSDSDSEGGAAGGEADMDFLRNLFSQTLSLGSQKERLLDELTLEGVARYMQSERCRRVICLVGAGISTSAGIPDFRSPSTGLYDNLEKYHLPYPEAIFEISYFKKHPEPFFALAKELYPGQFKPTICHYFMRLLKDKGLLLRCYTQNIDTLERIAGLEQEDLVEAHGTFYTSHCVSASCRHEYPLSWMKEKIFSEVTPKCEDCQSLVKPDIVFFGESLPARFFSCMQSDFLKVDLLLVMGTSLQVQPFASLISKAPLSTPRLLINKEKAGQSDPFLGMIMGLGGGMDFDSKKAYRDVAWLGECDQGCLALAELLGWKKELEDLVRREHASIDAQSGAGVPNPSTSASPKKSPPPAKDEARTTEREKPQ
Take B1: in data set [1], the “release of [3H]-acetyl label from p300-acetylated recombinant H1b” value is “SirT2 or SirT3 failed to significantly deacetylate H1b”.

B2: recombinant SirT3 (protein)
chain: MAFWGWRAAAALRLWGRVVERVEAGGGVGPFQACGCRLVLGGRDDVSAGLRGSHGARGEPLDPARPLQRPPRPEVPRAFRRQPRAAAPSFFFSSIKGGRRSISFSVGASSVVGSGGSSDKGKLSLQDVAELIRARACQRVVVMVGAGISTPSGIPDFRSPGSGLYSNLQQYDLPYPEAIFELPFFFHNPKPFFTLAKELYPGNYKPNVTHYFLRLLHDKGLLLRLYTQNIDGLERVSGIPASKLVEAHGTFASATCTVCQRPFPGEDIRADVMADRVPRCPVCTGVVKPDIVFFGEPLPQRFLLHVVDFPMADLLLILGTSLEVEPFASLTEAVRSSVPRLLINRDLVGPLAWHPRSRDVAQLGDVVHGVESLVELLGWTEEMRDLVQRETGKLDGPDK
For the protein B2, the “release of [3H]-acetyl label from p300-acetylated recombinant H1b” value in data set [1] was “SirT2 or SirT3 failed to significantly deacetylate H1b”.

B3: baculovirus-expressed recombinant FLAG-SirT1 protein (protein)
chain: MADEAALALQPGGSPSAAGADREAASSPAGEPLRKRPRRDGPGLERSPGEPGGAAPEREVPAAARGCPGAAAAALWREAEAEAAAAGGEQEAQATAAAGEGDNGPGLQGPSREPPLADNLYDEDDDDEGEEEEEAAAAAIGYRDNLLFGDEIITNGFHSCESDEEDRASHASSSDWTPRPRIGPYTFVQQHLMIGTDPRTILKDLLPETIPPPELDDMTLWQIVINILSEPPKRKKRKDINTIEDAVKLLQECKKIIVLTGAGVSVSCGIPDFRSRDGIYARLAVDFPDLPDPQAMFDIEYFRKDPRPFFKFAKEIYPGQFQPSLCHKFIALSDKEGKLLRNYTQNIDTLEQVAGIQRIIQCHGSFATASCLICKYKVDCEAVRGDIFNQVVPRCPRCPADEPLAIMKPEIVFFGENLPEQFHRAMKYDKDEVDLLIVIGSSLKVRPVALIPSSIPHEVPQILINREPLPHLHFDVELLGDCDVIINELCHRLGGEYAKLCCNPVKLSEITEKPPRTQKELAYLSELPPTPLHVSEDSSSPERTSPPDSSVIVTLLDQAAKSNDDLDVSESKGCMEEKPQEVQTSRNVESIAEQMENPDLKNVGSSTGEKNERTSVAGTVRKCWPNRVAKEQISRRLDGNQYLFLPPNRYIFHGAEVYSDSEDDVLSSSSCGSNSDSGTCQSPSLEEPMEDESEIEEFYNGLEDEPDVPERAGGAGFGTDGDDQEAINEAISVKQEVTDMNYPSNKS
With B3, the “western blot with the acetyl H1-K26 antibody after treatment with SirT1” value in data set [2] is reported as “resulted in decreased immunoreactivity”. The “release of [3H]-acetyl label from p300-acetylated recombinant H1b” value in data set [1] is given as “The same result was observed using recombinant human H1b”. For the same protein, in data set [3], the “nicotinamide exchange reaction (NER) with H1 as acetylated substrate” value is on record as “Histone H1 served as substrate in the SirT1-dependent NER assay” and the “release of [3H]-acetyl label from p300-acetylated H1” value is listed as “SirT1 -released up to 70% of the total label”.
